{
  "source": "the supplement of paper PMC10567573",
  "parents": {"B1": {"name": "WEE1 (parent)", "chain": "INPFTPDSLLLHSSGQCRRRKRTY"}},
  "data": [
    {"variants_of": "B1", "assay": "protein stability index of a GFP-peptide fusion (GPS, HEK-293T) (PSI 1-6); higher = more stable", "conditions": "c terminus: a fixed tail appended", "values": [
      {"variant": "INPFTPDSLLLHSSGQIRRRKRTY", "note": "[C17I]", "protein stability index": 4.01},
      {"variant": "INPFTPDSLLLHSSGQKRRRKRTY", "note": "[C17K]", "protein stability index": 4.12},
      {"variant": "INPFTPDSLLLHSSGQLRRRKRTY", "note": "[C17L]", "protein stability index": 4},
      {"variant": "INPFTPDSLLLHSSGQMRRRKRTY", "note": "[C17M]", "protein stability index": 4.1},
      {"variant": "INPFTPDSLLLHSSGQNRRRKRTY", "note": "[C17N]", "protein stability index": 3.85},
      {"variant": "INPFTPDSLLLHSSGQPRRRKRTY", "note": "[C17P]", "protein stability index": 4.37},
      {"variant": "INPFTPDSLLLHSSGQQRRRKRTY", "note": "[C17Q]", "protein stability index": 4.4},
      {"variant": "INPFTPDSLLLHSSGQRRRRKRTY", "note": "[C17R]", "protein stability index": 3.16},
      {"variant": "INPFTPDSLLLHSSGQSRRRKRTY", "note": "[C17S]", "protein stability index": 4},
      {"variant": "INPFTPDSLLLHSSGQTRRRKRTY", "note": "[C17T]", "protein stability index": 4.03},
      {"variant": "INPFTPDSLLLHSSGQVRRRKRTY", "note": "[C17V]", "protein stability index": 3.22},
      {"variant": "INPFTPDSLLLHSSGQWRRRKRTY", "note": "[C17W]", "protein stability index": 3.35},
      {"variant": "INPFTPDSLLLHSSGQYRRRKRTY", "note": "[C17Y]", "protein stability index": 3.04},
      {"variant": "INPFTPDSLLLHSSGQCARRKRTY", "note": "[R18A]", "protein stability index": 3.46},
      {"variant": "INPFTPDSLLLHSSGQCCRRKRTY", "note": "[R18C]", "protein stability index": 2.94},
      {"variant": "INPFTPDSLLLHSSGQCDRRKRTY", "note": "[R18D]", "protein stability index": 3.78},
      {"variant": "INPFTPDSLLLHSSGQCERRKRTY", "note": "[R18E]", "protein stability index": 3.67},
      {"variant": "INPFTPDSLLLHSSGQCFRRKRTY", "note": "[R18F]", "protein stability index": 2.9},
      {"variant": "INPFTPDSLLLHSSGQCGRRKRTY", "note": "[R18G]", "protein stability index": 3.31},
      {"variant": "INPFTPDSLLLHSSGQCHRRKRTY", "note": "[R18H]", "protein stability index": 3.39},
      {"variant": "INPFTPDSLLLHSSGQCIRRKRTY", "note": "[R18I]", "protein stability index": 2.86},
      {"variant": "INPFTPDSLLLHSSGQCKRRKRTY", "note": "[R18K]", "protein stability index": 3.26},
      {"variant": "INPFTPDSLLLHSSGQCLRRKRTY", "note": "[R18L]", "protein stability index": 3.2},
      {"variant": "INPFTPDSLLLHSSGQCMRRKRTY", "note": "[R18M]", "protein stability index": 2.81},
      {"variant": "INPFTPDSLLLHSSGQCNRRKRTY", "note": "[R18N]", "protein stability index": 3.12},
      {"variant": "INPFTPDSLLLHSSGQCPRRKRTY", "note": "[R18P]", "protein stability index": 3.57},
      {"variant": "INPFTPDSLLLHSSGQCQRRKRTY", "note": "[R18Q]", "protein stability index": 3.63},
      {"variant": "INPFTPDSLLLHSSGQCSRRKRTY", "note": "[R18S]", "protein stability index": 3.41},
      {"variant": "INPFTPDSLLLHSSGQCTRRKRTY", "note": "[R18T]", "protein stability index": 3.48},
      {"variant": "INPFTPDSLLLHSSGQCVRRKRTY", "note": "[R18V]", "protein stability index": 3.83},
      {"variant": "INPFTPDSLLLHSSGQCWRRKRTY", "note": "[R18W]", "protein stability index": 2.29},
      {"variant": "INPFTPDSLLLHSSGQCYRRKRTY", "note": "[R18Y]", "protein stability index": 3.58},
      {"variant": "INPFTPDSLLLHSSGQCRARKRTY", "note": "[R19A]", "protein stability index": 3.08},
      {"variant": "INPFTPDSLLLHSSGQCRCRKRTY", "note": "[R19C]", "protein stability index": 3.01},
      {"variant": "INPFTPDSLLLHSSGQCRDRKRTY", "note": "[R19D]", "protein stability index": 3.52},
      {"variant": "INPFTPDSLLLHSSGQCRERKRTY", "note": "[R19E]", "protein stability index": 3.8},
      {"variant": "INPFTPDSLLLHSSGQCRFRKRTY", "note": "[R19F]", "protein stability index": 2.62},
      {"variant": "INPFTPDSLLLHSSGQCRGRKRTY", "note": "[R19G]", "protein stability index": 3.34},
      {"variant": "INPFTPDSLLLHSSGQCRHRKRTY", "note": "[R19H]", "protein stability index": 3.32},
      {"variant": "INPFTPDSLLLHSSGQCRIRKRTY", "note": "[R19I]", "protein stability index": 3.88},
      {"variant": "INPFTPDSLLLHSSGQCRKRKRTY", "note": "[R19K]", "protein stability index": 3.32},
      {"variant": "INPFTPDSLLLHSSGQCRLRKRTY", "note": "[R19L]", "protein stability index": 3.03},
      {"variant": "INPFTPDSLLLHSSGQCRMRKRTY", "note": "[R19M]", "protein stability index": 2.91},
      {"variant": "INPFTPDSLLLHSSGQCRNRKRTY", "note": "[R19N]", "protein stability index": 3.38},
      {"variant": "INPFTPDSLLLHSSGQCRPRKRTY", "note": "[R19P]", "protein stability index": 3.03},
      {"variant": "INPFTPDSLLLHSSGQCRQRKRTY", "note": "[R19Q]", "protein stability index": 3.27},
      {"variant": "INPFTPDSLLLHSSGQCRSRKRTY", "note": "[R19S]", "protein stability index": 3.78}
    ]}
  ]
}
